This note sets out measurements from patent publication US20130309248A1.

Assay [1] has as its target full-length recombinant H3 HA (A/Wisconsin/67/2005) on PER.C6 cells (influenza A virus (H3N2)). The assay is described as follows: FACS, IgG 5 µg/ml, HA-expressing PER.C6 cells; untransfected MFI 21. A general note: A flow cytometer gives signals particle by particle.
Assay [2] has as its target full-length recombinant H1 HA (A/New Caledonia/20/1999) on PER.C6 cells (influenza A virus (H1N1)). The description is as above.
Assay [3] has as its target full-length recombinant H7 HA (A/Netherlands/219/2003) on PER.C6 cells (influenza A virus (H7N7)). Described as above.
The target in assay [4] is HA of virus A/New Caledonia/20/1999 (H1N1) (influenza A virus (H1N1)). The assay is described as follows: cell-based or functional assay.
The target of assay [5] is HA of virus A/Johannesburg/33/94 (H3N2) (influenza A virus (H3N2)). The experiment in a line: cell-based or functional assay.
The target in assay [6] is HA of virus A/Brisbane/59/2007 (H1N1) (influenza A virus (H1N1)). The experiment in a line: cell-based or functional assay.
In assay [7] the target is HA of virus A/Hiroshima/52/2005 (H3N2) (influenza A virus (H3N2)). The assay is described as follows: cell-based or functional assay.
For assay [8], the target named is HA of virus A/Solomon Islands/IVR-145 (H1N1) (influenza A virus (H1N1)). The experiment in a line: cell-based or functional assay.
The target of assay [9] is HA of virus A/Mallard/Netherlands/12/2000 (H7N3) (influenza A virus (H7N3)). The experiment in a line: cell-based or functional assay.
In assay [10] the target is HA of virus A/Wisconsin/67/2005 (H3N2) (influenza A virus (H3N2)). The assay is described as follows: cell-based or functional assay.
Assay [11] has as its target HA of virus A/Panama/2000/1999 (H3N2) (influenza A virus (H3N2)). The experiment in a line: cell-based or functional assay.
The target of assay [12] is HA of virus A/Chick/Germany/N/49 (H10) (influenza A virus (H10)). The experiment in a line: cell-based or functional assay.
Assay [13] deals with 3 H1N1 strains (1999-2007). The experiment in a line: cell-based or functional assay.
The target of assay [14] is full-length recombinant H3 HA (A/Wisconsin/67/2005) on PER.C6 cells (influenza A virus (H3N2)). The assay is described as follows: FACS, IgG 5 µg/ml, HA-expressing PER.C6 cells; untransfected MFI 4.
Assay [15] addresses full-length recombinant H1 HA (A/New Caledonia/20/1999) on PER.C6 cells (influenza A virus (H1N1)). The description is as above.
Assay [16] concerns the target full-length recombinant H7 HA (A/Netherlands/219/2003) on PER.C6 cells (influenza A virus (H7N7)). The assay is described as above.
Assay [17] addresses full-length recombinant H3 HA (A/Wisconsin/67/2005) on PER.C6 cells (influenza A virus (H3N2)). The assay is described as follows: FACS, IgG 5 µg/ml, HA-expressing PER.C6 cells; untransfected MFI 6.
Assay [18] has as its target full-length recombinant H1 HA (A/New Caledonia/20/1999) on PER.C6 cells (influenza A virus (H1N1)). The assay is described as above.
In assay [19] the target is full-length recombinant H7 HA (A/Netherlands/219/2003) on PER.C6 cells (influenza A virus (H7N7)). The assay is described as above.

B1: CR8055 (antibody, V domains shown)
VH: EIVLTQSPDFQSVAPKEKVTITCRASRSIGSDLHWFQQRPDQSPKLLIKFASQSMSGVPSRFSGSGSGRDFTLTISSLEAEDAATYYCHQSSSLPLT
VL: EVQLVESGGGLVQPGGSLRLSCAASGFTDSVIFMSWVRQAPGKGLECVSIIYIDDSTYYADSVKGRFTISRHNSMGTVFLEMNSLRPDDTAVYYCATESGDFGDQTGPYHYYAMDV
For the molecule B1, the MFI is 433 MFI in [1], 31 MFI in [2] and 26 MFI in assay [3]. Besides, the Neutralization titer SK50 in assay [4] was more than 40 µg/mL; in assay [5], 3.38 µg/mL; in assay [6], more than 40 µg/mL; in assay [7] it was 1.15 µg/mL; in assay [8], more than 40 µg/mL; in assay [9], more than 40 µg/mL. For the same molecule, the Neutralization titer SK50 in assay [10] is 1.07 µg/mL; in [11], more than 40 µg/mL; in assay [12] it was more than 40 µg/mL.

B2: CR8041 (antibody, V domains shown)
VH: QVQLVQSGAEVKKPGASVKVSCQASGYTFTSFGLSWVRQAPGQGPEWMGWISAYNGEIKYAQKFQGRVSMTTDTSTRTAYMEVRSLRPDDTAVYYCAREPPLYFSSWSLDF
VL: EIVLTQSPGTLSLSPGERATLSCRASQSVSSNYLAWFQQKPGQAPRLLIYGASRRATGIPDRFSGSGSGTDFTLTISRLEPEDFAVYYCQQYDSSPRT
In turn, B2 came in with an SK50 titer in [13] of more than 40 µg/mL. The figures for the MFI in assay [14], in assay [15] and in assay [16] were 364 MFI, 4 MFI and 120 MFI, respectively.

B3: CR8050 (antibody, V domains shown)
VH: EIVMTQSPGTLSLSPGERATLSCRASQSVSRNYLAWYQQKPGLAPRLLISGASSRATGVPDRFSGRGSDTDFTLTISRLEPEDFAVYYCQHYGSVLVA
VL: QVQLQESGPGLVKPSETLSLTCTVSGGSVSSGTYYWSWIRQPPGKGLEWIGDISYSGSTNYNPSLKSRVTISRDTSKNLVSLKLTSVTAADTAVHYCARAMAAYNYDRGGYNDYYYMDV
Turning to B3, the Neutralization titer SK50 in [5] was 1.49 µg/mL; in [9] it was more than 40 µg/mL; in [10], 1.77 µg/mL; in assay [11], 6.5 µg/mL; in [12] it was more than 40 µg/mL. Also, the values for the MFI in assay [17], in [18] and in [19] were 282 MFI, 8 MFI and 6 MFI, respectively.
